# In the supplement of paper PMC9112550, “Optimization of the antimicrobial peptide Bac7 by deep mutational scanning” (BMC Biology, 2022):
# Test system: Escherichia coli TOP10
# Test: shrunken log2 fold change of peptide-encoding DNA abundance (4.5 h post-induction vs induction); higher = less antimicrobial activity (less host growth inhibition)
# Conditions: time post-induction: 4.5 h; library: site-saturation at positions 5, 18, 19, 20
# 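Also: peptides expressed intracellularly from a pBAD plasmid library in pooled LB shake-flask culture, induced with 0.3% L-arabinose, DNA abundance read by NGS, three biological replicates, DESeq2 with apeglm shrinkage.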
row,Sequence,shrunken log2 fold change
1,RRIRFRPPRLPRPRPRPQTNPRP,-0.619
2,RRIRFRPPRLPRPRPRPQVGPRP,-0.0394
3,RRIRFRPPRLPRPRPRPQVMPRP,-0.265
4,RRIRFRPPRLPRPRPRPQVQPRP,-0.0485
5,RRIRFRPPRLPRPRPRPQVRPRP,0.305
6,RRIRFRPPRLPRPRPRPQWAPRP,0.136
7,RRIRFRPPRLPRPRPRPQWCPRP,-0.0514
8,RRIRFRPPRLPRPRPRPQWHPRP,-0.461
9,RRIRFRPPRLPRPRPRPQWRPRP,1.49
10,RRIRFRPPRLPRPRPRPQWWPRP,-0.0312
11,RRIRFRPPRLPRPRPRPQYSPRP,-0.581
12,RRIRFRPPRLPRPRPRPRALPRP,0.148
13,RRIRFRPPRLPRPRPRPRCFPRP,-0.183
14,RRIRFRPPRLPRPRPRPRCWPRP,0.309
15,RRIRFRPPRLPRPRPRPRDDPRP,0.133
16,RRIRFRPPRLPRPRPRPRDLPRP,-0.00831
17,RRIRFRPPRLPRPRPRPRDMPRP,-0.128
18,RRIRFRPPRLPRPRPRPRDPPRP,0.553
19,RRIRFRPPRLPRPRPRPREHPRP,0.0409
20,RRIRFRPPRLPRPRPRPREIPRP,0.0702
21,RRIRFRPPRLPRPRPRPRFDPRP,-0.248
22,RRIRFRPPRLPRPRPRPRFWPRP,0.317
23,RRIRFRPPRLPRPRPRPRGCPRP,0.433
24,RRIRFRPPRLPRPRPRPRGYPRP,-0.25
25,RRIRFRPPRLPRPRPRPRHWPRP,0.437

row,Sequence,shrunken log2 fold change
1,RRIRFRPPRLPRPRPRPRLYPRP,-0.014
2,RRIRFRPPRLPRPRPRPRMCPRP,0.0779
3,RRIRFRPPRLPRPRPRPRNEPRP,-0.0379
4,RRIRFRPPRLPRPRPRPRNKPRP,-0.174
5,RRIRFRPPRLPRPRPRPRNMPRP,-0.127
6,RRIRFRPPRLPRPRPRPRPAPRP,0.807
7,RRIRFRPPRLPRPRPRPRPLPRP,0.406
8,RRIRFRPPRLPRPRPRPRQEPRP,0.0178
9,RRIRFRPPRLPRPRPRPRRYPRP,-0.0281
10,RRIRFRPPRLPRPRPRPRSLPRP,0.0152
11,RRIRFRPPRLPRPRPRPRTWPRP,0.544
12,RRIRFRPPRLPRPRPRPRVHPRP,-0.0984
13,RRIRFRPPRLPRPRPRPRVWPRP,0.963
14,RRIRFRPPRLPRPRPRPRWEPRP,0.025
15,RRIRFRPPRLPRPRPRPRWIPRP,0.0967
16,RRIRFRPPRLPRPRPRPRYNPRP,-0.323
17,RRIRFRPPRLPRPRPRPSCYPRP,-0.839
18,RRIRFRPPRLPRPRPRPSDCPRP,-0.476
19,RRIRFRPPRLPRPRPRPSDDPRP,-0.106
20,RRIRFRPPRLPRPRPRPSDNPRP,-0.527
21,RRIRFRPPRLPRPRPRPSEPPRP,-0.0424
22,RRIRFRPPRLPRPRPRPSFCPRP,-0.373
23,RRIRFRPPRLPRPRPRPSGCPRP,-0.0116
24,RRIRFRPPRLPRPRPRPSHAPRP,-0.149
25,RRIRFRPPRLPRPRPRPSIWPRP,-0.111

row,Sequence,shrunken log2 fold change
1,RRIRFRPPRLPRPRPRPSKAPRP,-0.367
2,RRIRFRPPRLPRPRPRPSLNPRP,-0.642
3,RRIRFRPPRLPRPRPRPSLRPRP,-0.262
4,RRIRFRPPRLPRPRPRPSNGPRP,-0.238
5,RRIRFRPPRLPRPRPRPSNRPRP,-0.381
6,RRIRFRPPRLPRPRPRPSPPPRP,0.218
7,RRIRFRPPRLPRPRPRPSPYPRP,-0.481
8,RRIRFRPPRLPRPRPRPSQFPRP,-0.44
9,RRIRFRPPRLPRPRPRPSQMPRP,-0.208
10,RRIRFRPPRLPRPRPRPSRLPRP,0.014
11,RRIRFRPPRLPRPRPRPSSCPRP,-0.183
12,RRIRFRPPRLPRPRPRPSSIPRP,-0.945
13,RRIRFRPPRLPRPRPRPSSQPRP,-0.458
14,RRIRFRPPRLPRPRPRPSSSPRP,-0.625
15,RRIRFRPPRLPRPRPRPSTEPRP,-0.112
16,RRIRFRPPRLPRPRPRPSTNPRP,-0.147
17,RRIRFRPPRLPRPRPRPSVMPRP,-0.537
18,RRIRFRPPRLPRPRPRPSVNPRP,-0.388
19,RRIRFRPPRLPRPRPRPSWLPRP,0.156
20,RRIRFRPPRLPRPRPRPSWVPRP,-0.393
21,RRIRFRPPRLPRPRPRPSYAPRP,-0.116
22,RRIRFRPPRLPRPRPRPTALPRP,0.0145
23,RRIRFRPPRLPRPRPRPTAPPRP,0.602
24,RRIRFRPPRLPRPRPRPTAWPRP,0.618
25,RRIRFRPPRLPRPRPRPTCHPRP,-0.231
